Data: patent publication US20020061552A1 (published 2002)

T1: Myc-tagged mNkd protein, in vitro translated (mouse, UniProt Q99MH6 1-471, labelled with 35S-methionine)
T1 construct: Made with the TNT coupled reticulocyte lysate system in the presence of 35S-methionine; also called Myc-mNkd; 35S-mNkd; not shown: Myc tag
T1 sequence: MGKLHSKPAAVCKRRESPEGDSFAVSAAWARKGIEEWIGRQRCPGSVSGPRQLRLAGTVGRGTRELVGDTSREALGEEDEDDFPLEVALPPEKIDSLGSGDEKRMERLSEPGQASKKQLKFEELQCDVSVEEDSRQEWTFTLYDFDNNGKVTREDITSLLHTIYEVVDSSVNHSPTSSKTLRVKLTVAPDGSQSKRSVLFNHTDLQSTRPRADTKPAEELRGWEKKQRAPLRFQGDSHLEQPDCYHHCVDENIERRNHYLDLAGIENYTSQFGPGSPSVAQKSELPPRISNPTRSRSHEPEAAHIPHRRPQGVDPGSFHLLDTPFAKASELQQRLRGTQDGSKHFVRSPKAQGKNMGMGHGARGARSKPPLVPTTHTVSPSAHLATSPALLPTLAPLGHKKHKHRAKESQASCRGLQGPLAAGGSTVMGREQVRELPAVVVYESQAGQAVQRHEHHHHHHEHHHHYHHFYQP

B1: GST fusion of the PDZ domain of Drosophila Dvl (other, UniProt P51140 252-324, looked up)
chain: TVSINMEAVNFLGISIVGQSNRGGDGGIYVGSIMKGGAVALDGRIEPGDMILQVNDVNFENMTNDEAVRVLRE
notes: domain: PDZ; also called PDZ domain alone; not shown: glutathione-S-transferase (GST)

How the values were obtained:
[1] = molecular target: endogenous Dvl of HEK293 cells; test: cell-based or functional assay
[2] = molecular target: T1, Myc-tagged mNkd protein, in vitro …; test: GST pull-down, electrophoresis and autoradiography
Source text: The immunocomplexes were subjected to electrophoresis and autoradiography.

Row | Molecule | inhibition of the activation of the LEF-1 luciferase reporter by Wnt in HEK 293 cells [1] | binding result [2]
1 | Xpress tagged mNkd (from UniProt Q99MH6 1-471) | 75% | 
2 | B1 |  | no binding
